Values quoted from earlier work in patent US10753947B2, “Methods for screening voltage-gated proteins” (D.E. Shaw Research, LLC, priority 2012, dated 2020).

Key:
[1] = target: T1, Kv2.2 (Homo sapiens, UniProt Q92953); conditions: Table 5; read-out: IC50, channel Kv2.2; cited from earlier work
T1 sequence (Q92953 1-911): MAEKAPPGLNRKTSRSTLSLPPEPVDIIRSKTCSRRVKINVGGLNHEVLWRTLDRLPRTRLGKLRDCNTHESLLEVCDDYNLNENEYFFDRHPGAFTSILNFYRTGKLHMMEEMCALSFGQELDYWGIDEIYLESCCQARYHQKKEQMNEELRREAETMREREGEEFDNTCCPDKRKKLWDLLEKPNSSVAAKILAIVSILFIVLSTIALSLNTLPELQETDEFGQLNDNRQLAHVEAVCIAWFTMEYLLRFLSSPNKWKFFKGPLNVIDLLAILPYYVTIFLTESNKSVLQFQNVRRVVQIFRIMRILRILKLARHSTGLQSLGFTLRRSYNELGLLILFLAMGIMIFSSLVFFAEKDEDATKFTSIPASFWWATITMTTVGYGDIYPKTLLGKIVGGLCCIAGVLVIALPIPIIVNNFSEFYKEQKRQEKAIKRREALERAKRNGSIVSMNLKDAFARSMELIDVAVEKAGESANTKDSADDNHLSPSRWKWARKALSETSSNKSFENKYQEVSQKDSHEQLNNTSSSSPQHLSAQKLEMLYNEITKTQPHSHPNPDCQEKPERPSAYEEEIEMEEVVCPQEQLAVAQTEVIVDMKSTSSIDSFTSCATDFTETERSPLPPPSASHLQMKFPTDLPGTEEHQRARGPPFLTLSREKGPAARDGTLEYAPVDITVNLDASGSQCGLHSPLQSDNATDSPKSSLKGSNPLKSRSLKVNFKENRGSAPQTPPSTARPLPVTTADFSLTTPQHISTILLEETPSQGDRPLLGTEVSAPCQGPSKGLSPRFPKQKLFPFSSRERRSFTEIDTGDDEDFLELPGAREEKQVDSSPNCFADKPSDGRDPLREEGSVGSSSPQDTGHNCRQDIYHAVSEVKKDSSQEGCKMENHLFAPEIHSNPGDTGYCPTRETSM

[2] = target: Kv1.2 (Homo sapiens, UniProt P16389); conditions: Table 5; result in words; cited from earlier work
Chain of Kv1.2 (P16389 whole entry): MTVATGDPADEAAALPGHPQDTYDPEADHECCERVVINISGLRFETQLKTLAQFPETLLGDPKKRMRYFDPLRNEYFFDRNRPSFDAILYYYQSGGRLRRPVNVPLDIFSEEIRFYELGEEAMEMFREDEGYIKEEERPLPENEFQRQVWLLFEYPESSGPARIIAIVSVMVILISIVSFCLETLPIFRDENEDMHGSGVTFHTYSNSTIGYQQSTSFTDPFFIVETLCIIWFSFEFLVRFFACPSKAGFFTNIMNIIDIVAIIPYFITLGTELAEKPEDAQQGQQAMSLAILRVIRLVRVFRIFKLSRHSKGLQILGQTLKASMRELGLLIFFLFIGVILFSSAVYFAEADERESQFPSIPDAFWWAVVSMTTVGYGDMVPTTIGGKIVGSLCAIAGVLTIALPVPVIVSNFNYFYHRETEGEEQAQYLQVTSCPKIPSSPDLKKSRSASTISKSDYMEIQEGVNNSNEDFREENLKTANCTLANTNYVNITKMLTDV

[3] = target: Shaker (Drosophila melanogaster, UniProt P08510, DUP563-563/L584V/Q583H); conditions: Table 5; read-out: IC50, channel Shaker; cited from earlier work
Chain of Shaker (P08510 with tags, fused parts or gaps DUP563-563/Q583H/L584V): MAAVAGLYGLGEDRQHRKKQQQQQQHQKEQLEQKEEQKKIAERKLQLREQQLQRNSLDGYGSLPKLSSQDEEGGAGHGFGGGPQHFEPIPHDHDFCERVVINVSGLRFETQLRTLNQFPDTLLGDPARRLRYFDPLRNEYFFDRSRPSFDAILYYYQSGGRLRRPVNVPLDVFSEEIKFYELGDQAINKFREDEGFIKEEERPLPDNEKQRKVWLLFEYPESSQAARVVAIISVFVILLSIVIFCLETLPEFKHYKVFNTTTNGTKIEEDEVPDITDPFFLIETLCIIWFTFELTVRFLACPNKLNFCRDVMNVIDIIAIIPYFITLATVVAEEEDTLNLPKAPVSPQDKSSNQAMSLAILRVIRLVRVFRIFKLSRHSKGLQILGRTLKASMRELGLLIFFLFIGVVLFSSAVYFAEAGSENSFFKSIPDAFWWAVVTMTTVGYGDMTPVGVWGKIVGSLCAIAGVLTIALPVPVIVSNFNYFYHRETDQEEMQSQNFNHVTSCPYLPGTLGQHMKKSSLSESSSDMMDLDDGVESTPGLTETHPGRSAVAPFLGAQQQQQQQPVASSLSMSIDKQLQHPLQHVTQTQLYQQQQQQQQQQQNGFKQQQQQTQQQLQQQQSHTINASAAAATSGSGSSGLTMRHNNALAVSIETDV

[4] = target: Kv1.1 (Homo sapiens, UniProt Q09470); conditions: Table 5; read-out: IC50, channel Kv1.1; cited from earlier work
Chain of Kv1.1 (Q09470 whole entry): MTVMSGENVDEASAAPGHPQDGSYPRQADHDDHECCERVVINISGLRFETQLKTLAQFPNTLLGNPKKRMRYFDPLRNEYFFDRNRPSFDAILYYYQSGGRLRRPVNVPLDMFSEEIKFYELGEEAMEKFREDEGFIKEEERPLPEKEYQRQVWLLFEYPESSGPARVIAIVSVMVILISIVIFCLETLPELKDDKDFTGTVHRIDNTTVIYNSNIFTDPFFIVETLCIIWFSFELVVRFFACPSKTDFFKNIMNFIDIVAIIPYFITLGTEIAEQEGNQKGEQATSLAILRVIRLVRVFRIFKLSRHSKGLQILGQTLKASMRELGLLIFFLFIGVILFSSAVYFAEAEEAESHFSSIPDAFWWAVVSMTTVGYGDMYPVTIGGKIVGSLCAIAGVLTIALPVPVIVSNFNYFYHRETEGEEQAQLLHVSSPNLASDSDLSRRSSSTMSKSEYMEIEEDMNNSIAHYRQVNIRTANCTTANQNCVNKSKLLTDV

| Substance | IC50 [1] [nM] | IC50, channel Kv1.2 [2] | IC50 [3] [nM] | IC50 [4] [nM] |
| --- | --- | --- | --- | --- |
| Guangxitoxin (EGECGGFWWKCGSGKPACCPKYVCSPKWGLCNFPMP) [GxTx-1E] | 2.6 | No effect |  |  |
| Agitotoxin-2 (GVPINVSCTGSPQCIKPCKDAGMRFGKCMNRKCHCTPK) [AgTx2] |  |  | 0.64 | 0.044 |
